The data set concerns MS2 coat protein. The data set is described as follows: apparent KD of MS2 coat protein; designed switch direction (-1 OFF switch, 1 ON switch): -1; higher = weaker reporter binding. The method in brief:
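The apparent KD reported per design is the median over clusters of curve fits to normalised cluster fluorescence. The RNA switches were transcribed on Illumina chips by stalled E. coli RNA polymerase. SNAP-549-labelled MS2 coat protein was titrated from 0.7 or 1.5 nM, doubling up to 3 µM, in Tris-HCl pH 7.5 buffer containing KCl, MgCl2, BSA, DTT, tRNA and Tween-20, with no input, 200 uM small-molecule ligand, or an oligonucleotide input.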

[1] abbreviates: input ligand: microRNA oligo, concentration not stated.
[2] abbreviates: Eterna round: R95, input ligand: FMN 200 uM.
Setting [3] is: Eterna round: R95, input ligand: microRNA oligo, concentration not stated.
The mark [4] stands for this setting: Eterna round: R95, input ligand: none.

Data on 35 sequences can be found in the supplement of paper PMC9170038.

“UUUGCAAGCUUUAGAUCCCACAUGAGGAUCACCCAUGUUGCUGCCGUGAGGUAGCUUUUAACUAAUGCUCGUCUUAU [JL TOV1 3.45] (Eterna round: R97, puzzle: Sensor, turn-off variant 1)”: the “apparent KD of MS2 coat protein” value came out at 88.2 nM (input ligand: FMN 200 uM) and 163 nM (input ligand: none).
As to “UUUGUUUAUGUAGGAUAUGCCUGGCGUGCCUUUGCAGAAGGACAUGAGGAUCACCCAUGUAUUGCGGUCUGCGUUCAGAUCGCC [salish99_ExNG1_r4_036] (Eterna round: R96, puzzle: Exclusion NG 1)”, the “apparent KD of MS2 coat protein” value is, setting by setting: (input ligand: FMN 200 uM) 29.6 nM; under setting [1], 17.4 nM; (input ligand: none) 23 nM.
As for “UUUGUUUUGCAAGGAUAUGUUUAAUUUUAGUUUCCUUACACAUGAGGAUCACCCAUGUUAUACUUACAGAAGGUGCGUAAUUUG [Excl-NG2-LRO03] (Eterna round: R96, puzzle: Exclusion NG 2)”, the “apparent KD of MS2 coat protein” value under setting [1] stood at 122 nM.
The same measure, in the same setting: as for “UUUGUUUUGGUAGGAUAUACUUUUAUUUUCUCUUUCCUUACAUGAGGAUCACCCAUGUUUACAUUGUAGAAGGACCACUUUGUU [JR_ExcNG2_Sub051] (Eterna round: R96, puzzle: Exclusion NG 2)”, the figure is 15.5 nM.
“UUUUAACAUGAGGAUCACCCAUGUCAGGAUAUGGUUUUUUUUUUUUUUUUUUUUUUUUCCAGAAGGGACAUUUU [My solution] (puzzle: Exclusion 1)”: the “apparent KD of MS2 coat protein” value was 42.5 nM under setting [2], 5.77 nM under setting [3] and 3.88 nM under setting [4].
“UUUUAACAUGAGGAUCACCCAUGUGAGGAUAUCGAAAUUUAUAUUAAUAUUAAUAAAUCGAGAAGGCACAUUUU [JMF 20] (puzzle: Exclusion 1)”: the “apparent KD of MS2 coat protein” value under setting [3] worked out at 109 nM.
The same measure, in the same setting: as for “UUUUAACAUGAGGAUCACCCAUGUGAGGAUAUCGAAAUUUAUAUUAAUAUUAUUUAUUCGAGAAGGCACAUUUU [JMF 45] (puzzle: Exclusion 1)”, the figure is 118 nM.
Same read-out and setting: as for “UUUUAACAUGAGGAUCACCCAUGUGAGGAUAUCGAAAUUUAUAUUAAUAUUUAUAAUACGAGAAGGCACAUUUU [JMF 54] (puzzle: Exclusion 1)”, the figure is 84.4 nM.
On to “UUUUAACAUGAGGAUCACCCAUGUGAGGAUAUCGAAAUUUAUAUUAAUAUUUAUAUAACGAGAAGGCACAUUUU [JMF 55] (puzzle: Exclusion 1)”, for which, under setting [3], the “apparent KD of MS2 coat protein” value amounted to 65.3 nM.
Regarding “UUUUAACAUGAGGAUCACCCAUGUGAGGAUAUCGAAAUUUAUAUUAAUAUUUAUAUUACGAGAAGGCACAUUUU [JMF 58] (Eterna round: R96, puzzle: Exclusion 1)”, the “apparent KD of MS2 coat protein” value reads like this: (input ligand: FMN 200 uM) 103 nM; under setting [1], 55.3 nM; (input ligand: none) 62.9 nM.
On to “UUUUAACAUGAGGAUCACCCAUGUGAGGAUAUCGAAAUUUAUAUUAAUAUUUAUAUUACGAGAAGGCACAUUUU [JMF 58] (puzzle: Exclusion 1)”, for which, under setting [3], the “apparent KD of MS2 coat protein” value was determined as 75.9 nM.
With “UUUUAACAUGAGGAUCACCCAUGUGAGGAUAUCGAAAUUUAUAUUUAUAUUUAUAAAACGAGAAGGCACAUUUU [JMF 91] (puzzle: Exclusion 1)”, under setting [3], the “apparent KD of MS2 coat protein” value amounted to 113 nM.
On the same count and under the same terms, the same measure for “UUUUAACAUGAGGAUCACCCAUGUGAGGAUAUCGAAAUUUAUAUUUAUAUUUAUAAAUCGAGAAGGCACAUUUU [JMF 92] (puzzle: Exclusion 1)”: 111 nM.
The same measure, in the same setting: as for “UUUUAACAUGAGGAUCACCCAUGUGAGGAUAUCGAAAUUUAUAUUUAUAUUUAUAAUACGAGAAGGCACAUUUU [JMF 94] (puzzle: Exclusion 1)”, the figure is 82.3 nM.
“UUUUAACAUGAGGAUCACCCAUGUGAGGAUAUCGAAAUUUAUAUUUAUAUUUAUUAAACGAGAAGGCACAUUUU [JMF 99] (puzzle: Exclusion 1)”: the “apparent KD of MS2 coat protein” value under setting [3] came out at 66.9 nM.
In the case of “UUUUAACAUGAGGAUCACCCAUGUGAGGAUAUCGAAUUUUUUAUUAAUAUUAAUAAAACGAGAAGGCACAUUUU [JMF 16] (puzzle: Exclusion 1)”, the “apparent KD of MS2 coat protein” value under setting [3] amounted to 55.2 nM.
Still for that read-out and setting: as for “UUUUAACAUGAGGAUCACCCAUGUGAGGAUAUCGUAAUUUUUAUUAAUAUUAAUAAAACGAGAAGGCACAUUUU [JMF 13] (puzzle: Exclusion 1)”, the figure is 66.8 nM.
As for “UUUUAACAUGAGGAUCACCCAUGUGAGGAUAUCGUAUUUUUUUUUUUUUUUUUUUUUUCGAGAAGGCACAUUUU [My solution] (puzzle: Exclusion 1)”, the “apparent KD of MS2 coat protein” value by setting is: under setting [2], 1.24 nM; under setting [3], 6.56 nM; under setting [4], 16.5 nM.
Turning to “UUUUAACAUGAGGAUCACCCAUGUGAGGAUAUGGUAUUUUUUUUUUUUUUUUUUUUUUCCAGAAGGCACAUUUU [My solution] (puzzle: Exclusion 1)”, the “apparent KD of MS2 coat protein” value reads like this: under setting [2], 38.4 nM; under setting [3], 35.1 nM; under setting [4], 74.9 nM.
For “UUUUAACAUGAGGAUCACCCAUGUGAGGAUAUGGUUUUUUUUUUUUUUUUUUUUUUUUCCAGAAGGCACAUUUU [My solution] (Eterna round: R96, puzzle: Exclusion 1)”, the “apparent KD of MS2 coat protein” value (input ligand: FMN 200 uM) was 269 nM, the “apparent KD of MS2 coat protein” value under setting [1] is 44.2 nM and the “apparent KD of MS2 coat protein” value (input ligand: none) stood at 31.6 nM.
With “UUUUAACAUGAGGAUCACCCAUGUGAGGAUAUGGUUUUUUUUUUUUUUUUUUUUUUUUCCAGAAGGCACAUUUU [My solution] (puzzle: Exclusion 1)”, the “apparent KD of MS2 coat protein” value amounted to 25.4 nM under setting [2], 13.7 nM under setting [3] and 119 nM under setting [4].
Regarding “UUUUACAAGCUAAGAUCCUACAUGAGGAUCACCCAUGUGGUCCGGUGACGUGAGUCACCGGACUUAGCUCGUCUUGU [JL TOV1 3.70] (Eterna round: R97, puzzle: Sensor, turn-off variant 1)”, the “apparent KD of MS2 coat protein” value runs as follows: (input ligand: FMN 200 uM) 80.3 nM; (input ligand: none) 88.2 nM.
For “UUUUACAAGCUUAGAUCCUACAUGAGGAUCACCCAUGUGGUCCGGUGACGUGAGUCACCGGACUAAGCUCGUCUUGU [JL TOV1 3.71] (Eterna round: R97, puzzle: Sensor, turn-off variant 1)”, in that order: 124 nM and 114 nM.
On to “UUUUACAGGCUUAGAUCCUACAUGAGGAUCACCCAUGUGGUGGCGUGUCGUGAGACAUGCCACUAAGCUCGUCUUGU [JL TOV1 3.73] (Eterna round: R97, puzzle: Sensor, turn-off variant 1)”, for which the “apparent KD of MS2 coat protein” value is, setting by setting: (input ligand: FMN 200 uM) 98.3 nM; (input ligand: none) 103 nM.
In the case of “UUUUACAUCUAUGGGAGUGACAUGAGGAUCACCCAUGUAUGUCUUGUUUUUUGUUCGUCUAGGACUUUCUGAUCAGU [JR_SV3TOV1_Sub033] (puzzle: Sensor v3, turn-off variant 1)”, the “apparent KD of MS2 coat protein” value reads like this: under setting [2], 565 nM; under setting [3], 222 nM; under setting [4], 730 nM.
Take “UUUUACAUGCUGAGAUCCUACAUGAGGAUCACCCAUGUGGUCCGGAAAAUUUUGUCACCGGAUUUUGCUCGUCUUGU [salish99_S_TOV1_R5_102] (Eterna round: R97, puzzle: Sensor, turn-off variant 1)”: the “apparent KD of MS2 coat protein” value (input ligand: FMN 200 uM) was found to be 69.5 nM and the “apparent KD of MS2 coat protein” value (input ligand: none) is 112 nM.
For the sequence “UUUUACCUAGGAUAUACAUUUUUUUUAUUAUUUUCAUUAUAACAUGAGGAUCACCCAUGUAGAAGGAGGAUUUU [My Design] (puzzle: Exclusion 2)”, the “apparent KD of MS2 coat protein” value under setting [3] worked out at 34.7 nM.
With “UUUUACUCAGGAUAUAUGAUGUGAAACAUGAGGAUCACCCAUGUAAUAUUAUGGAUGUAAAUAGAAGGGAGAUUUU [Mat - Exclusion 5 - JL mod - D17] (puzzle: Exclusion 5)”, the “apparent KD of MS2 coat protein” value under setting [2] turned out to be 58.8 nM, the “apparent KD of MS2 coat protein” value under setting [3] was determined as 62.3 nM and the “apparent KD of MS2 coat protein” value under setting [4] came to 78.4 nM.
As to “UUUUAGAGAGGAUAUAUAAAGUGAAACAUGAGGAUCACCCAUGUAAUUUUAUGGAUGUAAAUAGAAGGCUCAUUUU [Mat - Exclusion 5 - JL mod - D2] (puzzle: Exclusion 5)”, the “apparent KD of MS2 coat protein” value under setting [2] came out at 27.8 nM, the “apparent KD of MS2 coat protein” value under setting [3] stood at 34.2 nM and the “apparent KD of MS2 coat protein” value under setting [4] was determined as 34.7 nM.
On to “UUUUAGAGAGGAUAUAUAUUUUAAAACAUGAGGAUCACCCAUGUAAUUUUAUGGGAGUAAAUAGAAGGCUCAUUUA [JMFs Solution 3] (puzzle: Exclusion 5)”, for which the “apparent KD of MS2 coat protein” value by setting is: under setting [2], 48.7 nM; under setting [3], 51 nM; under setting [4], 56.3 nM.
For “UUUUAGAGAGGAUAUAUUAUGUGAAACAUGAGGAUCACCCAUGUAAUAUGAUGGAUGUAAAUAGAAGGCUCAUUUA [JL-ex5-3.06] (puzzle: Exclusion 5)”, in that order: 34.6 nM, 48.3 nM and 58 nM.
Consider “UUUUAGGAAGGAUAUACAUUUUUUUUAUUAUCCUCAUUAUUACAUGAGGAUCACCCAUGUAGAAGGUCCAUUUU [My Design] (puzzle: Exclusion 2)”, for which the “apparent KD of MS2 coat protein” value under setting [3] was 175 nM.
Take “UUUUAGUAAGGAUAUGUGGUACGCUUAAAAUAGGAAGGGACACAGAAGGUACAUGAGGAUCACCCAUGUGAACC [Eternabot (L1) Solution 49] (Eterna round: R97, puzzle: Exclusion 4)”: the “apparent KD of MS2 coat protein” value by setting is: (input ligand: FMN 200 uM) 140 nM; (input ligand: none) 61.9 nM.
Taken in the same sequence, the figures for “UUUUAGUCAGGAUAUACAUGAGGAUCACCCAUGUAAAAUUUUAAUUUAAUUUGAAGGUGUAGAAGGGACAUUUU [Ex3 #40] (Eterna round: R97, puzzle: Exclusion 3)” were 25.9 nM and 27.8 nM.
For “UUUUAGUCAGGAUAUACAUGAGGAUCACCCAUGUAAAAUUUUAAUUUAAUUUUAAGGUGUAGAAGGGACAUUUA [Ex3 #6] (Eterna round: R97, puzzle: Exclusion 3)”, in that order: 28.4 nM and 33.6 nM.
